Like-named read-outs stand apart in the source and are kept apart here.
T1: human CEA protein on the cell surface (human, UniProt P06731 35-685)
T1 sequence (looked up): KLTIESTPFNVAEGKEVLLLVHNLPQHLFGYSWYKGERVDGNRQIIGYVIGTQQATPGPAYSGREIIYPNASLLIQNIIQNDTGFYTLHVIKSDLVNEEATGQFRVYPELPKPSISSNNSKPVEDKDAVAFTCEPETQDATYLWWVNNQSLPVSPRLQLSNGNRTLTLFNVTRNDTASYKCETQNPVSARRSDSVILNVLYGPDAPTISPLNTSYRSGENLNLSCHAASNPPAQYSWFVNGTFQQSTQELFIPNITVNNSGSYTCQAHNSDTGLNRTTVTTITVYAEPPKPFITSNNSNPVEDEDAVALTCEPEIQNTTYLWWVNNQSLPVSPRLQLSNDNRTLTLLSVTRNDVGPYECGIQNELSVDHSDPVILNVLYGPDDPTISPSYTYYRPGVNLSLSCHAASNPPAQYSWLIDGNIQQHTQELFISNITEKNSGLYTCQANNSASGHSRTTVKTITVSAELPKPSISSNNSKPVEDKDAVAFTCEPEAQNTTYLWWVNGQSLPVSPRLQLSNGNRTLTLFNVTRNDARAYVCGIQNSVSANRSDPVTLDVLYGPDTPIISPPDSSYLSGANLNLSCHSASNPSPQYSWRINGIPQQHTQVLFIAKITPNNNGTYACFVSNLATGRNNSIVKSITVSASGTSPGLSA

T2: human CEACAM1 expressed on CHO cell surface (human, UniProt P13688 35-526)
T2 construct: also called CEACAM1-CHO
T2 sequence: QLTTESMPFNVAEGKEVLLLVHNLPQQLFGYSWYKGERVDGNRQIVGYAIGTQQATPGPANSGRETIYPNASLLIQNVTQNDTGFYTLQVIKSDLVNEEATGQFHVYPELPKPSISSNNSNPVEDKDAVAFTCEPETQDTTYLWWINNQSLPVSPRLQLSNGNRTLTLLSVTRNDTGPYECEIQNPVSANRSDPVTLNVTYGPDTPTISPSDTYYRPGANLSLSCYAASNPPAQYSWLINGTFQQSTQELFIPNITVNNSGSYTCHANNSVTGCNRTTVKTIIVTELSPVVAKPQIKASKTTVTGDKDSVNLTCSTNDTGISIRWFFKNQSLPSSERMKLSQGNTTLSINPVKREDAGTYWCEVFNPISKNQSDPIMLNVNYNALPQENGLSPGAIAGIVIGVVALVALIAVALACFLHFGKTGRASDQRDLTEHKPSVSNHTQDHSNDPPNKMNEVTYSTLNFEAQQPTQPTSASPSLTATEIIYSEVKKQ

T3: human soluble CEA (human, UniProt P06731 35-685, limits assumed)
T3 construct: also called sCEA
T3 sequence (looked up): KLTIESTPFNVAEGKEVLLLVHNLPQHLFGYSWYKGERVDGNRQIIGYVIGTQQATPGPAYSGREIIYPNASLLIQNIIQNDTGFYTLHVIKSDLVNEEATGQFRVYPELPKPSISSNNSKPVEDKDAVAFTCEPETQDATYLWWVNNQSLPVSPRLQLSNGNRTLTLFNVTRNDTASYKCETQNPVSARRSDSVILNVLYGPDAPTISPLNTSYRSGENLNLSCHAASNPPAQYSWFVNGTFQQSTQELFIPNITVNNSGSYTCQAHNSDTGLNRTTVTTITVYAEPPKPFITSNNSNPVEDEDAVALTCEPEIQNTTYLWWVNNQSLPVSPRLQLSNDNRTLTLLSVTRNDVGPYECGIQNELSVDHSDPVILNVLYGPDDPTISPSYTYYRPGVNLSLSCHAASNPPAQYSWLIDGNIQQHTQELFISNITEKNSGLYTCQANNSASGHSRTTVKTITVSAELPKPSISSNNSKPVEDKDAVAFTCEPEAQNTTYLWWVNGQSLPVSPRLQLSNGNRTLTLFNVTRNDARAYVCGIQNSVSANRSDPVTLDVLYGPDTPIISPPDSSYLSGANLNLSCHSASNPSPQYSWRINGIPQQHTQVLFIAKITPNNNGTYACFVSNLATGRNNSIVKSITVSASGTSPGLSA

T4: monkey CEA expressed on CHO cell surface (cynomolgus monkey)
T4 construct: also called cynoCEA-CHO; monkey CEA proteins on the cell surface
T4 chain: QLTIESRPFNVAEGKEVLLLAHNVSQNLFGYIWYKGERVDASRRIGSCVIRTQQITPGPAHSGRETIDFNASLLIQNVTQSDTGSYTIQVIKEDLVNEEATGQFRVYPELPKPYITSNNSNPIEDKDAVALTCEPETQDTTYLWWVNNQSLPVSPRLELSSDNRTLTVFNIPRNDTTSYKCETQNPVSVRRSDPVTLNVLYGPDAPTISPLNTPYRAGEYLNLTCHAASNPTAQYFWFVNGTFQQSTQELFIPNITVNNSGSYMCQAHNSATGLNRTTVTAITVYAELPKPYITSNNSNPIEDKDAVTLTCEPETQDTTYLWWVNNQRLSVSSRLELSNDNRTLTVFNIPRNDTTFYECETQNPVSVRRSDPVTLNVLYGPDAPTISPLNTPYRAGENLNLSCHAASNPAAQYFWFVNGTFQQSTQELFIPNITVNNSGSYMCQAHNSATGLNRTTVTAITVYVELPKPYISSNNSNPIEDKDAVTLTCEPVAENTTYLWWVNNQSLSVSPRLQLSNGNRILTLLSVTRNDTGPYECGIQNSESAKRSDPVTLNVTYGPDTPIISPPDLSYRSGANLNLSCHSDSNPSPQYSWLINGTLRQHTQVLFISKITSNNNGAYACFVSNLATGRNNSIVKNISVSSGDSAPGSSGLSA


Columns and labels:
[1] = target: T1, human CEA protein on the cell surface; experiment: cell-based or functional assay
[2] = target: T2, human CEACAM1 expressed on CHO cell …; experiment: FACS, CEACAM1-CHO cells
[3] = target: T1, human CEA protein on the cell surface; experiment: FACS, MKN45 cells
[4] = target: T3, human soluble CEA; experiment: SPR (Biacore T200), antibody captured, soluble CEA as analyte, 1:1 Langmuir
Description: The affinity of a test humanized antibody for human and monkey soluble CEA was determined using a Biacore (GE, T200) instrument. According to the method in the instructions of a human antibody capture kit (GE, Cat #BR-1008-39), the human antibody capture antibody was covalently conjugated to a biosensor chip CM5 (GE, Cat #BR-1005-30) of the Biacore instrument to affinity-capture a certain amount of the test antibody, then a series of concentration gradients of soluble CEA antigens were allow to flow through the surface of the chip, and reaction signals were detected in real time using Biacore, so that an association and dissociation curve was obtained. After each cycle of dissociation was completed, the biochip was washed and regenerated with a regeneration solution prepared in the human antibody capture kit. The data obtained from the experiment were fitted with the (1:1) Langmuir model using BIAevaluation version 4.1 software to obtain affinity values.

[5] = target: T4, monkey CEA expressed on CHO cell surface; experiment: FACS, cynoCEA-CHO cells
[6] = target: T1, human CEA protein on the cell surface; experiment: FACS, MKN45 cells; remark: listed apart in the source
[7] = target: T2, human CEACAM1 expressed on CHO cell …; experiment: FACS, CEACAM1-CHO cells; remark: listed apart in the source
[8] = target: T4, monkey CEA expressed on CHO cell surface; experiment: FACS, cynoCEA-CHO cells

Binder | binding result [2] | EC50 [3] [nM] | Kd [4] [nM] | EC50 [5] [nM] | further results
Hu63-13-2-A (DAR 6.29) (antibody, human IgG1, kappa, V domains shown, see heavy chain; linker-toxin 2-A coupled to cysteine thiols of the TCEP-reduced antibody; mean DAR 6.29 per antibody) VH: EVQLVQSGAEVKKPGASVKVSCKASGYTFTDFYMNWVRQAPGQGLEWMGDIFPKSGNTDYNRKFKDRVTMTRDTSTSTVYMELSSLRSEDTAVYYCARSGYGNYVFDYWGQGTLVTVSS VL: DIQMTQSPSSLSASVGDRVTITCRTSQDINIYLNWYQQKPGKAPKLLIYYRSGLLSGVPSRFSGSGSGTDFTLTISSLQPEDFATYYCQQGNTLPPTFGGGTKVEIKR | – | – | – | – | IC50 of inhibition of cell proliferation, LS174T (with moderate CEA expression) [1]: 13.1 nM; IC50 of inhibition of cell proliferation, MKN45 (with high CEA expression) [1]: 3.93 nM
Hu63-13 (antibody, human IgG1, kappa, V domains shown, Humanized IgG1/kappa; h63VH5 + h63VL1) VH: EVQLVQSGAEVKKPGASVKVSCKASGYTFTDFYMNWVRQAPGQGLEWMGDIFPKSGNTDYNRKFKDRVTMTRDTSTSTVYMELSSLRSEDTAVYYCARSGYGNYVFDYWGQGTLVTVSS VL: DIQMTQSPSSLSASVGDRVTITCRTSQDINIYLNWYQQKPGKAPKLLIYYRSGLLSGVPSRFSGSGSGTDFTLTISSLQPEDFATYYCQQGNTLPPTFGGGTKVEIKR | no binding | 2.93 | 144 | 1.71 | –
mAb47 (antibody, V domains shown, Murine hybridoma antibody) VH: QIQLVQSGPELKKPGETVKISCKASGYTFTTYGMSWVKQAPGKGLKWMGWINTYSGVPTYADDFKGRFAFSLETSASTAYLQINNLKNEDTATYFCARRGNYGRWDFDVWGTGTTVTVSS VL: EIVLTQSPALMAASPGEKVTITCSVSSTISSSNLHWYQQKSETSPKPWIYGTSNLASGVPVRFSGSGSGTSYSLTISSMEAEDAATYYCQQWSIYPLTFGAGTKLELK | – | – | – | – | EC50 [6]: 2.1 nM; binding result [7]: no binding; EC50 [8]: 1.66 nM
Labetuzumab (antibody, human IgG1, kappa, V domains shown, Positive control antibody; also called Lmab; antibody in Lmab-CL2A-SN38) VH: EVQLVESGGGVVQPGRSLRLSCSASGFDFTTYWMSWVRQAPGKGLEWIGEIHPDSSTINYAPSLKDRFTISRDNAKNTLFLQMDSLRPEDTGVYFCASLYFGFPWFAYWGQGTPVTVSS VL: DIQLTQSPSSLSASVGDRVTITCKASQDVGTSVAWYQQKPGKAPKLLIYWTSTRHTGVPSRFSGSGSGTDFTFTISSLQPEDIATYYCQQYSLYRSFGQGTKVEIKR | no binding | 2.45 | 5.93 | – | binding result [5]: no binding
mAb67 (antibody, V domains shown, Murine hybridoma antibody) VH: EVQLQQSGPELVKPGASVKIYCKASGYTFTDYHMNWVKQSHGKSLEWIGDINPDIGGTSYNQNFKGKATLTVDKSSSTAYMELRSLTSEDSAVYYCSRWDFDSFANWGQGTLVTVSA VL: DIVMTQSPASLAMSLGKRATISCRASESVSIIGTNLIHWYQQKPGQPPKLLIYHASNLETGVPARFSGSGSGADFTLTIDPVEGDDVALYYCLQSRKIPYTFGGGTKMEIK | – | – | – | – | EC50 [6]: 1.9 nM; binding result [7]: no binding; EC50 [8]: 6 nM
antibody in SAR-408701 (antibody, human IgG1, kappa, V domains shown, Positive control antibody; also called Sanofi) VH: EVQLQESGPGLVKPGGSLSLSCAASGFVFSSYDMSWVRQTPERGLEWVAYISSGGGITYAPSTVKGRFTVSRDNAKNTLYLQMNSLTSEDTAVYYCAAHYFGSSGPFAYWGQGTLVTVSS VL: DIQMTQSPASLSASVGDRVTITCRASENIFSYLAWYQQKPGKSPKLLVYNTRTLAEGVPSRFSGSGSGTDFSLTISSLQPEDFATYYCQHHYGTPFTFGSGTKLEIKR | no binding | – | – | 17.3 | –
Hu67-14 (antibody, human IgG1, kappa, V domains shown, Humanized IgG1/kappa; h67VH3 + h67VL4) VH: EVQLVQSGAEVKKPGESLKISCKGSGYSFTDYHMNWVKQMPGKGLEWMGDINPDIGGTSYNQNFKGKVTISVDKSISTAYLQWSSLKASDTAMYYCARWDFDSFANWGQGTLVTVSS VL: DIQMTQSPSSLSASVGDRVTITCRASESVSIIGTNLIHWYQQKPGKAPKLLIYHASNLETGVPSRFSGSGSGTDFTLTISSLQPEDFATYYCLQSRKIPYTFGGGTKVEIKR | no binding | – | 228 | 2.89 | –
Hu47-14-2-A (DAR 6.6) (antibody, human IgG1, kappa, V domains shown, see heavy chain; linker-toxin 2-A coupled to cysteine thiols of the TCEP-reduced antibody; mean DAR 6.6 per antibody) VH: EVQLVQSGSELKKPGASVKVSCKASGYTFTTYGMSWVKQAPGQGLKWMGWINTYSGVPTYASDFKGRFVFSLDTSVSTAYLQISSLKAEDTAVYYCARRGNYGRWDFDVWGQGTTVTVSS VL: EIVLTQSPDFQSVTPKEKVTITCSVSSTISSSNLHWYQQKPDQSPKPLIYGTSNLASGVPSRFSGSGSGTDYTLTINSLEAEDAATYYCQQWSIYPLTFGQGTKLEIKR | – | – | – | – | IC50 of inhibition of cell proliferation, LS174T (with moderate CEA expression) [1]: 10.3 nM; IC50 of inhibition of cell proliferation, MKN45 (with high CEA expression) [1]: 6.58 nM
Hu47-14 (antibody, human IgG1, kappa, V domains shown, Humanized IgG1/kappa; h47VH4 + h47VL2) VH: EVQLVQSGSELKKPGASVKVSCKASGYTFTTYGMSWVKQAPGQGLKWMGWINTYSGVPTYASDFKGRFVFSLDTSVSTAYLQISSLKAEDTAVYYCARRGNYGRWDFDVWGQGTTVTVSS VL: EIVLTQSPDFQSVTPKEKVTITCSVSSTISSSNLHWYQQKPDQSPKPLIYGTSNLASGVPSRFSGSGSGTDYTLTINSLEAEDAATYYCQQWSIYPLTFGQGTKLEIKR | no binding | 4.19 | 1430 | 2.7 | –
Hu103-32 (antibody, human IgG1, lambda, V domains shown, Humanized IgG1/lambda; h103VH4 + h103VL8) VH: EVQLVQSGSELKKPGASVKVSCKASGYTFTTYGVIWVRQAPGQGLEWMGWINTYSGVPTYASDFKGRFVFSLDTSVSTAYLQISSLKAEDTAVYYCARKKTLTTVTPWFAYWGQGTLVTVSS VL: ELVLTQSPSASASLGASVKLTCTLSSQHSTYTIEWYQQQPEKGPRYVMELKKDGSHSTGEGIPDRFSGSSSGAERYLTISSLQSEDEADYYCGVGNTIKEQFVYVFGGGTKLTVLG | no binding | 1.79 | 31.1 | – | –
